Data on two proteins can be found in article PMC4585773, “The C-terminus hot spot region helps in the fibril formation of bacteriophage-associated hyaluronate lyase (HylP2)” (Scientific Reports, 2015).

Series [1] concerns the molecule itself. The series is described as follows: SEC; Superdex 200 HR 10/300, 25 °C, pH 5, 0.3 ml/min; step: the native enzyme to high molecular weight aggregates (void volume), compared with pH 7; no seeds. (In gel filtration, larger molecules generally elute earlier.)
Series [2] deals with the molecule itself. Kind of series: thioflavin T fluorescence kinetics; pH 5, 5 uM protein, 10 uM ThT, emission at 480 nm against time, seeded with preformed HylP2 fibrils; step: the native enzyme to fibrils.

B1: bacteriophage-associated hyaluronate lyase HylP2 (enzyme, Streptococcus pyogenes bacteriophage, UniProt Q54699 1-337, looked up)
chain: MSENIPLRVQFKRMKAAEWARSDVILLESEIGFETDTGFARAGDGHNRFSDLGYISPLDYNLLTNKPNIDGLATKVETAQKLQQKADKETVYTKAESKQELDKKLNLKGGVMTGQLKFKPAATVAYSSSTGGAVNIDLSSTRGAGVVVYSDNDTSDGPLMSLRTGKETFNQSALFVDYKGTTNAVNIAMRHATTPNFSSALNITSGNENGSAMQLRGSEKALGTLKITHENPSIGADYDKNAARYPLILSKRQNGAGTAAQGIYINSTSGTTGKLLRIRNLSDDKFYVKSDGGFYAKETSQIDGNLKLKDPTANDHAATKAYVDKAISELKKLILKK
notes: hyaluronate lyase HylP2 encoded by a Streptococcus pyogenes bacteriophage, full length, residues 1-337; also called HylP2_(1-337); phage hyaluronate lyase; source: E. coli BL21 (DE3), purified
Consider B1, for which the binding result in series [1] is reported as “binds”.

B2: HylP_(M179V,M181V) (enzyme, Streptococcus pyogenes bacteriophage, UniProt P15316 1-371, looked up)
chain: MTENIPLRVQFKRMSADEWARSDVILLEGEIGFETDTGFAKFGDGQNTFSKLKYLTGPKGPKGDTGLQGKTGGTGPRGPAGKPGTTDYDQLQNKPDLGAFAQKEETNSKITKLESSKADKSAVYSKAESKIELDKKLSLTGGIVTGQLQFKPNKSGIKPSSSVGGAINIDMSKSEGAAVVVYTNKDTTDGPLMILRSDKDTFDQSAQFVDYSGKTNAVNIVMRQPSAPNFSSALNITSANEGGSAMQIRGVEKALGTLKITHENPNVEAKYDENAAALSIDIVKKQKGGKGTAAQGIYINSTSGTAGKMLRIRNKNEDKFYVGPDGGFHSGANSTVAGNLTVKDPTSGKHAATKDYVDEKIAELKKLILKK
notes: hyaluronate lyase HylP of a Streptococcus pyogenes bacteriophage, residues 1-371, with M179V and M181V; made from the vector construct of full length HylP; Generated from the vector construct of m2; also called hot spot double mutant of HylP; source: E. coli BL21 (DE3), purified
Turning to B2, the binding result in series [2] is on record as “binds”.
